We go through one molecule from paper PMC5741291 (2017).

Broadly, the Kd is a measure of binding affinity in units of concentration. Low readings indicate a tighter complex, high ones a looser complex.

In the assay the target is Actin (F-actin, skeletal muscle) (Oryctolagus cuniculus, UniProt P68135). Kind of assay: stopped-flow light scattering.

B1: Myosin IIIA motor domain (p-huM3AMD) 311-1058 (protein)
chain: MGGTEKARRERIHTKKGNFNRPLISNLKDVDDLATLEILDENTVSEQLEKCYSRDQIYVYVGDILIALNPFQSLGLYSTKHSKLYIGSKRTASPPHIFAMADLGYQSMITYNSDQCIVISGESGAGKTENAHLLVQQLTVLGKANNRTLQEKILQVNNLVEAFGNACTIINDNSSRFGKYLEMKFTSSGAVVGAQISEYLLEKSRVIHQAIGEKNFHIFYYIYAGLAEKKKLAHYKLPENKPPRYLQNDHLRTVQDIMNNSFYKSQYELIEQCFKVIGFTMEQLGSIYSILAAILNVGNIEFSSVATEHQIDKSHISNHTALENCASLLCIRADELQEALTSHCVVTRGETIIRPNTVEKATDVRDAMAKTLYGRLFSWIVNCINSLLKHDSSPSGNGDELSIGILDIFGFENFKKNSFEQLCINIANEQIQYYYNQHVFAWEQNEYLNEDVDARVIEYEDNWPLLDMFLQKPMGLLSLLDEESRFPKATDQTLVEKFEGNLKSQYFWRPKRMELSFGIHHYAGKVLYNASGFLAKNRDTLPTDIVLLLRSSDNSVIRQLVNHPLTKTGNLPHSKTKNVINYQMRTSEKLINLAKGDTGEATRHARETTNMKTQTVASYFRYSLMDLLSKMVVGQPHFVRCIKPNSERQARKYDKEKVLLQLRYTGILETARIRRLGFSHRILFANFIKRYYLLCYKSSEEPRMSPDTCATILEKAGLDNWALGKTKVFLKYYHVEQLNLMRKEAIDK
modifications: phosphorylated by myosin IIIA kinase domain, MgADP
Turning to B1, binding was put at a Kd of 1070 nM.
